Test results published in the supplement of paper PMC11136658.

Tested on: peptide library, one residue held at a place counted from the Y acceptor
Test: relative phosphorylation of the sub-library (ratio to the mean residue at this position); higher = residue favoured
In short: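 Every value reflects phosphorylation relative to the mean randomized residue. The sum of the 18 randomized residues, or 16 in the Ser/Thr-free library, served to normalize intensities at each position, which were then multiplied by that number. Intensities came from phosphorimaging with ImageQuant of biotinylated Tyr-centred peptides captured on streptavidin membranes after 90 min with purified recombinant kinases and 50 μM ATP plus γ-32P-ATP.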

Chain of PDGFRA, construct: aa550-end, human (P16234 550-1089, looked up): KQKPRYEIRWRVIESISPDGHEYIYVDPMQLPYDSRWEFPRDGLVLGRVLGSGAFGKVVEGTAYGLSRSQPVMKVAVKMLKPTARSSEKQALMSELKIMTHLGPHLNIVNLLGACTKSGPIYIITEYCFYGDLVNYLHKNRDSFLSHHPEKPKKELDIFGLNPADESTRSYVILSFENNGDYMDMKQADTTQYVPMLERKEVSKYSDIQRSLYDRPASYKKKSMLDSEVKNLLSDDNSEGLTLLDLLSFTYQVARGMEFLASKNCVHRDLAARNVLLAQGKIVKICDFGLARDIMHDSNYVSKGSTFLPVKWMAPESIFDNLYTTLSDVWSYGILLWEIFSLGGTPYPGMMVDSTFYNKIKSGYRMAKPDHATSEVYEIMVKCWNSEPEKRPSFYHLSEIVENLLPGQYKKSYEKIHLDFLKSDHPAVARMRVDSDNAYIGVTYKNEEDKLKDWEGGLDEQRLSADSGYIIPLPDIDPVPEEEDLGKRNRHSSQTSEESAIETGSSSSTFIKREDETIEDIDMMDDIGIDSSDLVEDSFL

PDGFRA, construct: aa550-end, human (from UniProt P16234)
relative phosphorylation
Settings | at +1 | at +2 | at +3 | at +4 | at +5 | at -1 | at -2 | at -3 | at -4 | at -5
A fixed | 0.719 | 0.633 | 0.549 | 0.784 | 0.982 | 0.729 | 1.02 | 0.85 | 1.04 | 0.882
D fixed | 0.273 | 0.434 | 0.302 | 0.674 | 0.645 | 1.32 | 0.947 | 0.97 | 0.898 | 0.812
E fixed | 0.492 | 0.583 | 0.198 | 0.613 | 0.565 | 0.962 | 0.814 | 1.14 | 0.849 | 0.737
F fixed | 2.05 | 1.59 | 1.61 | 1.05 | 1.35 | 1.37 | 0.853 | 0.954 | 1.21 | 1.11
G fixed | 0.34 | 0.427 | 0.755 | 0.98 | 0.943 | 0.594 | 1.09 | 1.07 | 1.08 | 1.03
H fixed | 1.43 | 1.02 | 0.972 | 1.34 | 1.1 | 1.47 | 1.01 | 1.09 | 0.962 | 1.15
I fixed | 1.66 | 1.03 | 2.09 | 0.922 | 0.999 | 1.36 | 0.94 | 0.823 | 0.916 | 1.1
K fixed | 0.699 | 1.12 | 1.02 | 1.05 | 1.08 | 0.509 | 0.835 | 0.959 | 1.06 | 0.995
L fixed | 1.31 | 1.4 | 1.53 | 0.808 | 1.12 | 1.18 | 1 | 0.905 | 1.06 | 1.11
M fixed | 1.13 | 1.2 | 1.13 | 1.17 | 1.02 | 0.892 | 1 | 0.967 | 0.878 | 1.1
N fixed | 0.671 | 0.856 | 0.748 | 0.987 | 0.967 | 1.49 | 1.06 | 1.13 | 0.832 | 1.07
P fixed | 0.31 | 0.863 | 0.928 | 1.11 | 0.943 | 0.931 | 1.34 | 1.08 | 1.06 | 0.885
Q fixed | 1.25 | 0.928 | 0.632 | 1.01 | 0.92 | 1.07 | 1.13 | 1.11 | 1.07 | 1.04
R fixed | 0.768 | 1.56 | 1.19 | 1.49 | 1.17 | 0.55 | 1.03 | 1.09 | 1.05 | 1.19
S fixed | 0.655 | 0.633 | 0.604 | 0.91 | 0.932 | 0.694 | 1.03 | 1.02 | 0.801 | 0.817
T fixed | 0.848 | 0.606 | 0.793 | 0.97 | 0.888 | 0.945 | 0.917 | 0.977 | 0.745 | 0.856
V fixed | 1.92 | 0.851 | 1.62 | 0.839 | 0.98 | 1.02 | 0.954 | 0.778 | 0.894 | 0.86
W fixed | 1.46 | 2.27 | 1.33 | 1.31 | 1.39 | 0.91 | 1.03 | 1.07 | 1.6 | 1.26
pThr fixed | 0.498 | 0.395 | 0.237 | 0.467 | 0.482 | 0.675 | 0.695 | 0.693 | 0.744 | 0.786
pTyr fixed | 1.75 | 1.49 | 0.414 | 0.788 | 0.626 | 1.09 | 0.876 | 1.12 | 1.16 | 1.02
